Assays:
tdg_human TDG [1] = target: tdg_human TDG (UniProt Q13569)
tdg_mouse Tdg = tdg_mouse Tdg (UniProt P56581)
tdg_human TDG [2] = target: tdg_human TDG (UniProt Q13569); remark: listed apart in the source

Sequence of tdg_mouse Tdg (P56581 whole entry): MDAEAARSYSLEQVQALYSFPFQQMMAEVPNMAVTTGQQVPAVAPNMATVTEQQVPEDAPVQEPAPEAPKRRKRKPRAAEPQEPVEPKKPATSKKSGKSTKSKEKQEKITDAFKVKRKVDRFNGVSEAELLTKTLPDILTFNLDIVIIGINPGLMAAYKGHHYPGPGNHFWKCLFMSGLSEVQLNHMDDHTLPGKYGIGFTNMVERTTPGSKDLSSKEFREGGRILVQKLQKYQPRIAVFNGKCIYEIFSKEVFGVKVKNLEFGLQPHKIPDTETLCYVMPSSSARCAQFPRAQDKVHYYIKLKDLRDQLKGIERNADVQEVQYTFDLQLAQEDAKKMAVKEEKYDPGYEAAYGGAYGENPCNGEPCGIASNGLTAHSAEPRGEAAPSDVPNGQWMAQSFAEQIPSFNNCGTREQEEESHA
Sequence of tdg_human TDG (Q13569 whole entry): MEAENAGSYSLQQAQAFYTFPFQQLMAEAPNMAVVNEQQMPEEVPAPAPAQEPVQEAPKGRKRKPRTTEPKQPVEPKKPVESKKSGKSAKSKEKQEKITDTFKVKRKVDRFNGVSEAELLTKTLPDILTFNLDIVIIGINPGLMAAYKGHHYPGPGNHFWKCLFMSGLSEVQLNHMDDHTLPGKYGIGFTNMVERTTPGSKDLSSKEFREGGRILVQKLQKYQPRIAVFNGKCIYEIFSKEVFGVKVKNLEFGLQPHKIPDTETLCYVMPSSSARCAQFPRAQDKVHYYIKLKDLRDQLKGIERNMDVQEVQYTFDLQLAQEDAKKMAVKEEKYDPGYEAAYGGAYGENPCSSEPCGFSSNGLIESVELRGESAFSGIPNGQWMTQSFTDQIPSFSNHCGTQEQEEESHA
Sequence of Nuclear receptor coactivator 1 (Homo sapiens), Q15788-2 Y991F;Y1169F (Q15788 other isoform, or with tags, fused parts or gaps Y991F;Y1169F): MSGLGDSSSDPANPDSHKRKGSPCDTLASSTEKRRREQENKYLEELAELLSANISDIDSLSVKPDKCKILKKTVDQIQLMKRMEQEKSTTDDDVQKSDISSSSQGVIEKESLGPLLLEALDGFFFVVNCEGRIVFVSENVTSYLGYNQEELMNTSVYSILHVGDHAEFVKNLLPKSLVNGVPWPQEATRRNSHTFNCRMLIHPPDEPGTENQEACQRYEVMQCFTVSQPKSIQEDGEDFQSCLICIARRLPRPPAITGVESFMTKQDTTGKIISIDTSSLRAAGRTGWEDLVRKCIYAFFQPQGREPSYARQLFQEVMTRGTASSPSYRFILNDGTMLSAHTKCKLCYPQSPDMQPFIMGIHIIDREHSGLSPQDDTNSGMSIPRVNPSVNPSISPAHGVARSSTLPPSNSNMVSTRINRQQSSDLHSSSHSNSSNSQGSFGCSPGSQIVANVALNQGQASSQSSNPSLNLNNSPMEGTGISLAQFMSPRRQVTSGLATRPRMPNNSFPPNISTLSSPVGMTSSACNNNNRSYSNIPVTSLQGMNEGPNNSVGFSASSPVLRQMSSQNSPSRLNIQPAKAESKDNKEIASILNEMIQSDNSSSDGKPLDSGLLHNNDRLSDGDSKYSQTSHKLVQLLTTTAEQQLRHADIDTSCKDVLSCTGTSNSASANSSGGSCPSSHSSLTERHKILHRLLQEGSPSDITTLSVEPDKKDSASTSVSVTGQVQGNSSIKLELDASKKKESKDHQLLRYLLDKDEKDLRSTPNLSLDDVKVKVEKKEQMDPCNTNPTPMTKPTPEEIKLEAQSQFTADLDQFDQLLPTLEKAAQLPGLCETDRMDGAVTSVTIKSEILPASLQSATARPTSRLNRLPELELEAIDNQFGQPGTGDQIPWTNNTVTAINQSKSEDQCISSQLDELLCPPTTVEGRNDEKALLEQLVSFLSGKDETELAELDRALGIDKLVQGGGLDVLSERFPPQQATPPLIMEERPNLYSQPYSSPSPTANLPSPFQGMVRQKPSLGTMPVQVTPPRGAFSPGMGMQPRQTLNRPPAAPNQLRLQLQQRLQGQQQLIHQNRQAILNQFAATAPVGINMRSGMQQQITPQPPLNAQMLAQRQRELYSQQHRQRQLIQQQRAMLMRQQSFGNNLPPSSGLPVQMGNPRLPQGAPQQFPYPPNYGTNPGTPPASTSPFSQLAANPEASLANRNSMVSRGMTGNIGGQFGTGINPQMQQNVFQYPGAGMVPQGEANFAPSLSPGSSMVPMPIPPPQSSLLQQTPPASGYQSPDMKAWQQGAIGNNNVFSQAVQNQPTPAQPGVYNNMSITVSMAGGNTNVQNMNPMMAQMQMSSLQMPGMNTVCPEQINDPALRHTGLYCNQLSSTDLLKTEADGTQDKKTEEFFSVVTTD
Sequence of Nuclear receptor coactivator 1 (Homo sapiens), Q15788-2 Y991F (Q15788 other isoform, or with tags, fused parts or gaps Y991F): as the sequence (Q15788 other isoform, or with tags, fused parts or gaps Y991F;Y1169F) above
Sequence of Nuclear receptor coactivator 1 (Homo sapiens), Q15788-2 Y1169F (Q15788 other isoform, or with tags, fused parts or gaps Y1169F): as the sequence (Q15788 other isoform, or with tags, fused parts or gaps Y991F;Y1169F) above

effect of a mutation on the interaction (tdg_human TDG [1])	effect of a mutation on the interaction (tdg_mouse Tdg)	effect of a mutation on the interaction (tdg_human TDG [2])	Substance
decreasing interaction strength	decreasing interaction strength		Nuclear receptor coactivator 1 (Homo sapiens), Q15788 Y991F
decreasing interaction strength	decreasing interaction strength		Nuclear receptor coactivator 1 (Homo sapiens), Q15788 Y991F;Y1169F
decreasing interaction strength	decreasing interaction strength		Nuclear receptor coactivator 1 (Homo sapiens), Q15788 Y1169F
		decreasing interaction strength	Nuclear receptor coactivator 1 (Homo sapiens), Q15788-2 Y991F
		disrupting interaction strength	Nuclear receptor coactivator 1 (Homo sapiens), Q15788-2 Y991F;Y1169F
		disrupting interaction strength	Nuclear receptor coactivator 1 (Homo sapiens), Q15788-2 Y1169F

From IntAct's records for PubMed 16282588
